Laboratory results published in patent publication US20260217835A1 (published 2026).

Target: the molecule itself
Experiment: SEC peak area ratio; full-length heavy chain, light chain and VHH-Fc coexpressed in Expi293F, affinity purified

B1: VHH-Fc with K392L/T394W/F405A/Y407V (SEQ ID NO: 586) (Fc fusion)
chain: EVQLVESGGGLVQPGGSLRLSCAASGSISSVDVMSWYRQAPGKQRELVAFITDRGRTNYKVSVKGRFTISRDNSKNMVYLQMNSLKPEDTADYLCRAESRTSWSSPSPLDVWGRGTQVTVSSDKTHTCPPCPAPELLGGPSVFLFPPKPKDTLMISRTPEVTCVVVDVSHEDPEVKFNWYVDGVEVHNAKTKPREEQYNSTYRVVSVLTVLHQDWLNGKEYKCKVSNKALPAPIEKTISKAKGQPREPQVYTLPPSREEMTKNQVSLTCLVKGFYPSDIAVEWESNGQPENNYLTWPPVLDSDGSFALVSKLTVDKSRWQQGNVFSCSVMHEALHNHYTQKSLSLSP
  Homo Fc fragment (%): 33.9%

B2: VHH-Fc with Y349C/E357C/K392D/D399K (SEQ ID NO: 589) (Fc fusion)
chain: EVQLVESGGGLVQPGGSLRLSCAASGSISSVDVMSWYRQAPGKQRELVAFITDRGRTNYKVSVKGRFTISRDNSKNMVYLQMNSLKPEDTADYLCRAESRTSWSSPSPLDVWGRGTQVTVSSDKTHTCPPCPAPELLGGPSVFLFPPKPKDTLMISRTPEVTCVVVDVSHEDPEVKFNWYVDGVEVHNAKTKPREEQYNSTYRVVSVLTVLHQDWLNGKEYKCKVSNKALPAPIEKTISKAKGQPREPQVCTLPPSRECMTKNQVSLTCLVKGFYPSDIAVEWESNGQPENNYDTTPPVLKSDGSFFLYSKLTVDKSRWQQGNVFSCSVMHEALHNHYTQKSLSLSP
notes: also called VHH-Fc of Sample No. 308
  Homo Fc fragment (%): 8.6%

B3: VHH-Fc with E356K/K392D/D399K/K409D (SEQ ID NO: 591) (Fc fusion)
chain: EVQLVESGGGLVQPGGSLRLSCAASGSISSVDVMSWYRQAPGKQRELVAFITDRGRTNYKVSVKGRFTISRDNSKNMVYLQMNSLKPEDTADYLCRAESRTSWSSPSPLDVWGRGTQVTVSSDKTHTCPPCPAPELLGGPSVFLFPPKPKDTLMISRTPEVTCVVVDVSHEDPEVKFNWYVDGVEVHNAKTKPREEQYNSTYRVVSVLTVLHQDWLNGKEYKCKVSNKALPAPIEKTISKAKGQPREPQVYTLPPSRKEMTKNQVSLTCLVKGFYPSDIAVEWESNGQPENNYDTTPPVLKSDGSFFLYSDLTVDKSRWQQGNVFSCSVMHEALHNHYTQKSLSLSP
notes: also called VHH-Fc of Sample No. 310
  Homo Fc fragment (%): 28.9%

B4: VHH-Fc with E356K/K392D/D399K/K439E (SEQ ID NO: 587) (Fc fusion)
chain: EVQLVESGGGLVQPGGSLRLSCAASGSISSVDVMSWYRQAPGKQRELVAFITDRGRTNYKVSVKGRFTISRDNSKNMVYLQMNSLKPEDTADYLCRAESRTSWSSPSPLDVWGRGTQVTVSSDKTHTCPPCPAPELLGGPSVFLFPPKPKDTLMISRTPEVTCVVVDVSHEDPEVKFNWYVDGVEVHNAKTKPREEQYNSTYRVVSVLTVLHQDWLNGKEYKCKVSNKALPAPIEKTISKAKGQPREPQVYTLPPSRKEMTKNQVSLTCLVKGFYPSDIAVEWESNGQPENNYDTTPPVLKSDGSFFLYSKLTVDKSRWQQGNVFSCSVMHEALHNHYTQESLSLSP
  Homo Fc fragment (%): 31.5%

B5: VHH-Fc with E345R/Q347R/K360D/T366V/D399M/Y407A/K409V (SEQ ID NO: 590) (Fc fusion)
chain: EVQLVESGGGLVQPGGSLRLSCAASGSISSVDVMSWYRQAPGKQRELVAFITDRGRTNYKVSVKGRFTISRDNSKNMVYLQMNSLKPEDTADYLCRAESRTSWSSPSPLDVWGRGTQVTVSSDKTHTCPPCPAPELLGGPSVFLFPPKPKDTLMISRTPEVTCVVVDVSHEDPEVKFNWYVDGVEVHNAKTKPREEQYNSTYRVVSVLTVLHQDWLNGKEYKCKVSNKALPAPIEKTISKAKGQPRRPRVYTLPPSREEMTDNQVSLVCLVKGFYPSDIAVEWESNGQPENNYKTTPPVLMSDGSFFLASVLTVDKSRWQQGNVFSCSVMHEALHNHYTQKSLSLSP
notes: also called VHH-Fc of Sample No. 309
  Homo Fc fragment (%): 32.3%

B6: VHH-Fc with K392D/D399K/K409D (SEQ ID NO: 588) (Fc fusion)
chain: EVQLVESGGGLVQPGGSLRLSCAASGSISSVDVMSWYRQAPGKQRELVAFITDRGRTNYKVSVKGRFTISRDNSKNMVYLQMNSLKPEDTADYLCRAESRTSWSSPSPLDVWGRGTQVTVSSDKTHTCPPCPAPELLGGPSVFLFPPKPKDTLMISRTPEVTCVVVDVSHEDPEVKFNWYVDGVEVHNAKTKPREEQYNSTYRVVSVLTVLHQDWLNGKEYKCKVSNKALPAPIEKTISKAKGQPREPQVYTLPPSREEMTKNQVSLTCLVKGFYPSDIAVEWESNGQPENNYDTTPPVLKSDGSFFLYSDLTVDKSRWQQGNVFSCSVMHEALHNHYTQKSLSLSP
  Homo Fc fragment (%): 24.3%
